Results on two substances are retold here after patent publication US20260224621A1.

In assay [1] the target is CD20 on Raji lymphocyte cells and primary CLL cells (human) (UniProt P11836). Briefly: cell-based or functional assay.
For assay [2], the target named is CD19 on Raji cells, primary CLL cells and melanoma cell lines made to overexpress CD19 (UniProt P15391). Briefly: cell-based or functional assay.

Regarding Rituximab (anti-CD20) (antibody), the specific killing of Raji cells by YTS cells expressing CD16 (ADCC), 3 hours in assay [1] is more than 60%.

Take “anti-CD19 CAR FMC63-28-3z (FMC63 scFV against CD19, CD28 costimulatory domain, CD3zeta signaling domain; Addgene #135991), expressed on YTS cells (from UniProt P10747 180-220; P20963 52-164)”: in assay [2], the specific killing of Raji cells 24 hours after coculture, YTS CAR-CD19 cells (non-irradiated, 1000, 2500 or 3000 cGy) is more than 55%; the specific killing of Raji cells by YTS cells expressing CAR-CD19 was more than 50%; the specific killing of Raji cells, same day (2-3 hours), YTS CAR-CD19 cells irradiated with 1000 cGy was determined as 25%; the specific killing of Raji cells, same day (2-3 hours), YTS CAR-CD19 cells irradiated with 2500 cGy is 23%. The specific killing of Raji cells, same day (2-3 hours), non-irradiated YTS CAR-CD19 cells in assay [2] worked out at 18%.
